This data set is described as follows: amyloid nucleation score (Sup35N fusion, yeast selection) (log enrichment); library NNK3; higher = more nucleation; inactive = no reads after selection. An outline of the steps:
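Peptides of 20 random codons fused to Sup35N were expressed in psi-negative yeast, induced 24 hours with 100 μM copper sulfate, then grown 7 days at 30°C on medium lacking adenine and uracil. Input and output plasmid inserts were Illumina-sequenced. Nucleation score is the DiMSum log enrichment of output over input reads, centred on the mode score of non-aggregating sequences, excluding sequences with under 100 input reads. Random libraries had three technical output replicates.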

Amyloid nucleation score data for 130 substances are collected here from the supplement of paper PMC12042874.

± gives the uncertainty stated by the source.

In the case of LRGNECRPGVELPVTVSKFR, the amyloid nucleation score result was “inactive”. In the case of HTCVD, the amyloid nucleation score entry was “inactive”.

As to FIVNSLPDLNALAHMSALLY, the amyloid nucleation score result is “inactive”. As to GSCFVKEVSGGHMLGS, the amyloid nucleation score entry is “inactive”. For the substance KANFNVSVGKSVHATCLLTL, the amyloid nucleation score result was “inactive”. For IPFRLFQNDSEKMSWSCDVT, the amyloid nucleation score result is “inactive”. Regarding RMDADI, the amyloid nucleation score result was “inactive”. For the substance RLILDNHDTSFCLIHGSRMI, the amyloid nucleation score result is “inactive”. As for LSNIICSCQLCWACPSLSVM, the amyloid nucleation score is 2.47 ± 0.057.

Consider VAWRLFQNVWVHTGSDGYTV, for which the amyloid nucleation score is -0.601 ± 1.1. Take SSITRGLHVRKTSVSTLGV: the amyloid nucleation score entry was “inactive”. For the substance HSDKCDCSAVDDLLRRVVL, the amyloid nucleation score result was “inactive”. The substance YLVQNFKT came in with an amyloid nucleation score of -0.401 ± 0.6.

Take LLRSQASTATGYH: the amyloid nucleation score result is “inactive”.

As for VKWKDVDLFGLC, the amyloid nucleation score result is “inactive”. As for GSRDYCVVNSIESDNCFQGW, the amyloid nucleation score result is “inactive”.

Take IFACLHGAREVFLFQWLGFE: the amyloid nucleation score result is “inactive”. Turning to RANVQDMTKISYVFTYTWYV, the amyloid nucleation score entry was “inactive”. As to LRRQTSHKS, the amyloid nucleation score entry is “inactive”. As for DFGHVIQSSWNSMNSAQSVA, the entry is “inactive”; as for LNTYQHFCIFMLSYALLSGH, -1.49 ± 2.5. Next, IIHLNLSNVWYTPSGWYRVC: 2.3 ± 0.063; SFCGLYVKFSVGYVVLIWGS: “inactive”; VTFMIDFRASWALFHDRWWC: “inactive”. As for SIMREMWWSDTLFGGMNRFW, the figure is 0.992 ± 0.11.

SRNVGFGINSQQGLFFRVVV: the amyloid nucleation score entry is “inactive”.

In the case of HCFFDFAYLTRCSSLRSKRC, the amyloid nucleation score entry was “inactive”. Turning to VQWSVSFLSVVGVPWYRRLV, the amyloid nucleation score result is “inactive”. In the case of LDGMYHTVRICNSCF, the amyloid nucleation score entry is “inactive”. Regarding HCAMCWGILEFEISMFAMEW, the amyloid nucleation score result was “inactive”. In the case of QGEHRHLCDLSLSEG, the amyloid nucleation score result is “inactive”.

For the substance SSKSWLRYRVDEHTVSTFGF, the amyloid nucleation score result is “inactive”.

With TWRYRKMYYRSDVNHCLFEV, the amyloid nucleation score result is “inactive”. With ASDTVTCFAYAVKGLRRASG, the amyloid nucleation score entry is “inactive”.

In turn, PVVTMLYLTSIVSSSGHGSY gave an amyloid nucleation score of 0.898 ± 0.11. As for DRTMLFVTCFNFRRSS, the figure is 1.64 ± 0.078. For DGHGRRHSRVQIRGIVACSD, the amyloid nucleation score result is “inactive”. Regarding WLGRTATQFNIC, the amyloid nucleation score entry is “inactive”.

Take LNLGIFV: the amyloid nucleation score result is “inactive”. As for LSGPMRYELCMRLGSGLNYE, the amyloid nucleation score result was “inactive”. On to MLHLGTCEIILAYHHDMKML, for which the amyloid nucleation score entry was “inactive”.

For the substance GCREICFNLCFKRSLTCALL, the amyloid nucleation score result was “inactive”. In turn, SIYFWCS returned an amyloid nucleation score of 2.09 ± 0.065. For VVDGSRCPPLSLSSDMWAR, the amyloid nucleation score entry was “inactive”. Next, YSFSNVLVLGSTGPGTSSQA: “inactive”.

In the case of YVLFCCCPLMDFITDLSLST, the amyloid nucleation score was found to be 2.1 ± 0.055. VLPENIILNFIQMSDNRFLL: the amyloid nucleation score was determined as 1.8 ± 0.072. As to ASRSMTGSLCLFAFMV, the amyloid nucleation score result is “inactive”. As for TTEEL, the amyloid nucleation score result was “inactive”. Take MISRSSNKGV: the amyloid nucleation score result was “inactive”. As to TLPMLDNTNNFTSPL, the amyloid nucleation score is -0.034 ± 0.31.

For SSGYAFTGKVFYC, the amyloid nucleation score result was “inactive”.

TGSNRSYIFFCWSRFNVMFG registered an amyloid nucleation score of -0.002 ± 0.9.

Consider TSIIRMAPRPTHSRVIWFKV, for which the amyloid nucleation score result is “inactive”.

As to TRDFRTCNGLANKVRSKVCS, the amyloid nucleation score result is “inactive”.

In the case of SSFLKQLLGSVVNSVNVATV, the amyloid nucleation score result is “inactive”. Take PMCFSSHRFGTCRINWHVPG: the amyloid nucleation score entry was “inactive”.

With CFLCFTPHSFHVCSI, the amyloid nucleation score entry was “inactive”.

On to SRSINCFPMLILLVL, for which the amyloid nucleation score result is “inactive”. Regarding MYVPIPVYFQF, the amyloid nucleation score entry was “inactive”.

As for RSRVSQFICRPGEVVNIAKC, the amyloid nucleation score result was “inactive”. In turn, TSLLINVVLMVNRPGCP showed an amyloid nucleation score of 1.67 ± 0.061.

Turning to QRIESGPLDY, the amyloid nucleation score result is “inactive”. KCLKCKTGLCTMQGEYNRSY displayed an amyloid nucleation score of -0.475 ± 0.88. Consider FDTYTLSNTF, for which the amyloid nucleation score entry was “inactive”. As to FALNL, the amyloid nucleation score entry was “inactive”. Take VLKFFLTAMVD: the amyloid nucleation score result was “inactive”. Turning to NYLYVELIWLHFSSMALRDD, the amyloid nucleation score result was “inactive”. For ANHDVLADVCRLSRRGVLRR, the amyloid nucleation score entry was “inactive”. In the case of RNTGKAVHFCNRVYDSSMSM, the amyloid nucleation score was -0.1 ± 0.6. As for MWVMGNDS, the entry is “inactive”.

For the substance GFRYSLLSSRSFYWHRSPSM, the amyloid nucleation score entry is “inactive”.

Regarding RSMVGWACYLSWRFA, the amyloid nucleation score result is “inactive”.

For GPYHELCNHRL, the amyloid nucleation score result was “inactive”. In the case of RISSCSYHRVRVHVDTWAHV, the amyloid nucleation score result was “inactive”. As to YWLMKALQIWHSENRFRYIE, the amyloid nucleation score result was “inactive”. Regarding FGSVERFLLDPLTGHVGRFF, the amyloid nucleation score entry was “inactive”. IVSTWG: the amyloid nucleation score entry is “inactive”. In the case of VHLGSFDFIFLNMSSTRSLG, the amyloid nucleation score entry was “inactive”. Next, SWTSVSFRRMLMDSSR: “inactive”; LLDNITLFVWNYMVSSEWKL: “inactive”; HYYNSHSWATTTT: “inactive”. As for DHYAWIFTDRLWYCRCNTVT, the amyloid nucleation score result is “inactive”.

Turning to LVCFARVRKMEAEAFMKLVW, the amyloid nucleation score was found to be 0.64 ± 0.26. In the case of GGLYKYKNRTRLFMSWRVSR, the amyloid nucleation score entry is “inactive”. As for DINAVT, the entry is “inactive”; as for MLKPIMLILKSLEFVLEESS, 0.985 ± 0.11. As for IYWDTRLGFCAYAKC, the amyloid nucleation score entry was “inactive”. With LAMHIALDSNRDKAFGVLNE, the amyloid nucleation score result was “inactive”. As for YKWARYVFTTDNYFWVPAGY, the entry is “inactive”; as for VSGQKVSCMDE, “inactive”; as for YYLFWVAFDMMLRLRFFVMD, “inactive”.

Take AMEEDIYLTNDYTIIM: the amyloid nucleation score was found to be 0.45 ± 0.39. GVWKEHVTRAAVVSWKEGVN: the amyloid nucleation score entry was “inactive”. GPFVSFYFVFTRFNQTSLGF displayed an amyloid nucleation score of 1.57 ± 0.066.

For VNLFHSYCMAISRIITISSL, the amyloid nucleation score result is “inactive”. Turning to RFSCCYRPLLYNQKVEWWRG, the amyloid nucleation score result was “inactive”. For CRLVAEYGLQVKPMQR, the amyloid nucleation score result was “inactive”. In the case of GRFKSGSLPFRRSGE, the amyloid nucleation score result was “inactive”. As for GRLIPREGT, the entry is “inactive”. In the case of VIALDVNL, the amyloid nucleation score result was “inactive”.

Consider RNWCSLNNLFYPWV, for which the amyloid nucleation score was 1.78 ± 0.12. Regarding KLTIRYLWYPLEQSGYRTCE, the amyloid nucleation score is 1.06 ± 0.2. As to MSGALFMGLGTGRSRVTRNL, the amyloid nucleation score entry is “inactive”. As for CDTSFKIDELPYSASLHFAF, the entry is “inactive”; as for SACSVIFTEYINVSLLLSST, 0.251 ± 0.42; as for LSMCAVFDRYLWVGSGDITY, “inactive”. In the case of NSVVSGFLGHVLVGRRCGHR, the amyloid nucleation score result was “inactive”. For the substance LSSSGIMFCFFVDGLRSLV, the amyloid nucleation score result was “inactive”.

As for RQFCSQLICSIMVYVCLCGI, the amyloid nucleation score entry was “inactive”. Regarding LRFRLNSRVYTTHNIKVPSL, the amyloid nucleation score entry was “inactive”.

For the substance STKPFSYYCLRYHRTVTALL, the amyloid nucleation score result is “inactive”. Regarding QFHYYVLMIRSVIPFIALWK, the amyloid nucleation score entry is “inactive”. As to YQRYGRGFLRVSSFSLDSRM, the amyloid nucleation score was -0.352 ± 0.81.

Consider GRYHDGAAQWGRHNVFRSSA, for which the amyloid nucleation score entry was “inactive”. Next, LRFRAQNTYEGPYTVGPVWS: “inactive”; ILCANGYRSVFSYFLFGCAY: “inactive”; AMGLACGLDGSAVFGCMLTT: “inactive”. As for RNMNLLSMHIGLISLFSGEL, the figure is 1.81 ± 0.056; as for GNNCPRVSIFNREAKIDNVL, “inactive”. In the case of FKVNLDVP, the amyloid nucleation score is -0.263 ± 1.4. With VFGPLYSSYDIRQ, the amyloid nucleation score result was “inactive”. Next, YLLSVYLLVATSCMYGNMGE: “inactive”. IVVNR: the amyloid nucleation score entry is “inactive”. With KSMIAGVTMWLLCTVSLSYN, the amyloid nucleation score entry was “inactive”. In the case of IMLLVGAWTVSYNSCGSDAR, the amyloid nucleation score result is “inactive”. For the substance YAFIL, the amyloid nucleation score result is “inactive”. SMYIIMVCSSVSCWYFNRGH had an amyloid nucleation score of 0.94 ± 0.18. As for SFLRTVNGGRFSSVCSL, the amyloid nucleation score entry was “inactive”. As for MYYRTRQELTSCPRNQNIL, the amyloid nucleation score is -0.069 ± 0.85.
